Laboratory results as given in patent publication US20150010546A1 (Ablynx, published 2015).

Assays:
[1] = target: T1, human HGF (R&D Systems, 294-HG/CF) (human, UniProt P14210 32-728); assay: AlphaScreen competition, serial dilution of purified Nanobody; inhibition of biotinylated human HGF binding to c-Met-Fc
T1 construct: The entry begins at QRKRR, without signal peptide; Amine-coupled to the chip in SPR and biotinylated in AlphaScreen; also called rec hHGF (R&D systems)
Procedure: (§1) In brief, 5 μl of 1/5 prediluted periplasmic extract of individual Nanobody clones were incubated with 3 nM biotinylated HGF, 2 nM c-Met-Fc, streptavidin coated donor beads and anti-human IgG1 Fc Nanobody covalently coupled AlphaScreen acceptor beads. Monoclonal antibody clone 24612 (R&D systems) known to inhibit the HGF/c-Met-Fc interaction, was used as a positive control. Assays were read in an Envision AlphaScreen™ option fitted multimode reader (Perkin Elmer). Individual clones were scored as putative HGF/c-Met-Fc interaction inhibiting if the presence of the periplasmic extract decreased the fluorescent signal of the acceptor beads. Both inhibitory and non-inhibitory clones were identified. A 10-fold reduction in signal with respect to the negative control (irrelevant periplasmic extract and buffer) was used to select the HGF/c-Met inhibiting Nanobodies. As a positive control, anti-HGF monoclonal antibody (R&D systems, clone 24612) was included. FIG. 2 depicts an example of screen of periplasmic extracts using AlphaScreen.
(§2) Serial dilutions of purified Nanobodies were then analyzed for their ability to block the interaction of human HGF with c-Met-Fc using the same AlphaScreen™ assay as described above (1.4). […]

[2] = target: T2, human HGF (R&D material and Peprotech material, values averaged over both) (human, UniProt P14210 32-728); assay: SPR (Biacore T100), purified Nanobody, average of R&D and Peprotech HGF
T2 construct: As printed they differ in one letter
T2 sequence (P14210 32-728 limits assumed): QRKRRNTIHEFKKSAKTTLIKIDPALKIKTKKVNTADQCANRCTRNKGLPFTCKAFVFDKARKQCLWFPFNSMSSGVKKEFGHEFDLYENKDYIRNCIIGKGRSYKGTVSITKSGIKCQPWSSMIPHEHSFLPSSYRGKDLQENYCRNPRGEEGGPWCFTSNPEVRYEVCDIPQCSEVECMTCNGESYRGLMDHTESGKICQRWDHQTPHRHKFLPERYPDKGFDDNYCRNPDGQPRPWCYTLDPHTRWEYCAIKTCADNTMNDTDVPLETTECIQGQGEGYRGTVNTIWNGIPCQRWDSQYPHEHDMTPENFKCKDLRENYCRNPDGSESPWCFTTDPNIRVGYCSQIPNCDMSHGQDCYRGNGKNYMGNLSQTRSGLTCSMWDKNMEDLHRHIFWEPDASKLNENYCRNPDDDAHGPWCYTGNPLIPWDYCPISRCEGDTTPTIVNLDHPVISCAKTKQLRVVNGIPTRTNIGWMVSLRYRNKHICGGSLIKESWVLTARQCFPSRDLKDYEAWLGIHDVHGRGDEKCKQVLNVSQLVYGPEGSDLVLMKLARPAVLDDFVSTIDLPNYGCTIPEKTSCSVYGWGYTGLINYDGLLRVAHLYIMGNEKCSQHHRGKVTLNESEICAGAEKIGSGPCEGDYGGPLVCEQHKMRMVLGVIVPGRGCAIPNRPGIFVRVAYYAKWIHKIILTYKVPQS
Procedure: Affinity constants (Kd) of individual purified Nanobody clones were determined by surface plasmon resonance on a Biacore T100 instrument essentially as described above. The average was taken of an analysis performed on R&D material and Peprotech material.

[3] = target: T1, human HGF (R&D Systems, 294-HG/CF); assay: SPR (Biacore T100), HGF amine-coupled to CM5 chip, periplasmic extract at one dilution
Procedure: Off-rate constants (Koff) of individual Nanobodies were determined by surface plasmon resonance on a Biacore T100 instrument.
Human HGF (R&D) was amine-coupled to a CM5 sensor chip at a density of 2500 relative units. Remaining reactive groups were inactivated using ethanolamine. Nanobody binding was assessed at a single dilution of periplasmic extract, whereas c-Met was tested with a single concentration of 10 nM. Each sample was injected for 2 min at a flow rate of 45 μl/min to allow for binding to chip-bound antigen. Next, binding buffer without Nanobody was sent over the chip at the same flow rate to allow dissociation of bound Nanobody. After 10 min, remaining bound analyte was removed by injecting regeneration solution (1M NaCl, 50 mM NaOH).

[4] = target: T2, human HGF (R&D material and Peprotech …); assay: SPR (Biacore T100), summary table
[5] = target: T1, human HGF (R&D Systems, 294-HG/CF); assay: AlphaScreen competition, biotinylated HGF and c-Met-Fc, dilution series of purified Nanobody
Procedure: as §1, §2

[6] = target: T2, human HGF (R&D material and Peprotech …); assay: SPR (Biacore T100), purified Nanobody, biphasic dissociation, kd2 fitted 300-720 s after injection start
[7] = target: T2, human HGF (R&D material and Peprotech …); assay: SPR (Biacore T100), purified Nanobody, biphasic dissociation, kd1 fitted 125-185 s after injection start

T1 sequence (P14210 32-728 limits assumed): as above

koff [3] | koff [4] | IC50 [5] | Binder | also measured
0.000936 s⁻¹ | – | – | 7G6 (VHH, anti-HGF Nanobody clone; not shown: c-myc and His6 tags) VHH: EVQLVESGGGLVQAGGSLRLSCAVSGRTFSPYTMGWFRRAPGKEREFVAARTWSGGVAWYADSVKGRFTISSDNAENMVYLQMNSLKPEDTAVYYCAAKSPGRTYSPREERAYARWGQGTQVTVSS | IC50 (read off the curve) [1]: ~3 nM; Kd [2]: 0.67 nM; koff [2]: 0.000691 s⁻¹; kon [2]: 1.06e+06 M⁻¹ s⁻¹
0.00178 s⁻¹ | 0.006 s⁻¹ | 2.8 nM | 6G6 (VHH, anti-HGF Nanobody clone; not shown: c-myc and His6 tags) VHH: EVQLVESGGGLAQAGGSLRLSCAASGRSLSNYAMGWFRQAPGKEREIVCAISRSGSITTYADSVKGRFTIAKDNAANTVYLQMNSLKPEDTAAYYCAADPMYYGIPDQNWDYWGQGTQVTVSS | Kd [4]: 7.37 nM; Kd [2]: 7.37 nM; koff [2]: 0.00573 s⁻¹; kon [2]: 753000 M⁻¹ s⁻¹
0.00175 s⁻¹ | – | – | 5B7 (VHH, anti-HGF Nanobody clone, tested as periplasmic extract; not shown: c-myc and His6 tags) VHH: EVQLVESGGGLAQAGGSLRLSCAASGRSLSNYAMGWFRQAPGKEREIVCAISRSGSITTYADSVKGRFTIAKDNAANTVYLQMNSLKPEDTAAYYCAADPMYYGIPDQNWDYWGQGTQVTVSS | –
0.0017 s⁻¹ | – | – | 6E6 (VHH, anti-HGF Nanobody clone, tested as periplasmic extract; not shown: c-myc and His6 tags) VHH: EVQLVESGGGLAQAGGSLRLSCAASGRSLSNYAMGWFRQAPGKEREIVCAISRSGSITTYADSVKGRFTIAKDNAANTVYLQMNSLKPEDTAAYYCAADPMYYGIPDQNWDYWGQGTQVTVSS | –
0.00199 s⁻¹ | – | – | 5D10 (VHH, anti-HGF Nanobody clone, tested as periplasmic extract; not shown: c-myc and His6 tags) VHH: EVQLVESGGGLAQAGGSLRLSCAASGRSLSNYAMGWFRQAPGKEREIVCAISRSGSITTYADSVKGRFTIAKDNAANTVYLQMNSLKPEDTAAYYCAADPMYYGIPDQNWDYWGQGTQVTVSS | –
0.00163 s⁻¹ | – | – | 5E8 (VHH, anti-HGF Nanobody clone, tested as periplasmic extract; not shown: c-myc and His6 tags) VHH: EVQLVESGGGLAQAGGSLRLSCAASGRSLSNYAMGWFRQAPGKEREIVCAISRSGSITTYADSVKGRFTIAKDNAANTVYLQMNSLKPEDTAAYYCAADPMYYGIPDQNWDYWGQGTQVTVSS | –
0.00218 s⁻¹ | – | – | 9E6 (VHH, anti-HGF Nanobody clone, tested as periplasmic extract; not shown: c-myc and His6 tags) VHH: EVQLVESGGGLAQAGGSLRLSCAASGRSLSNYAMGWFRQAPGKEREIVCAISRSGSITTYADSVKGRFTIAKDNAANTVYLQMNSLKPEDTAAYYCAADPMYYGIPDQNWDYWGQGTQVTVSS | –
0.00164 s⁻¹ | – | – | 6A6 (VHH, anti-HGF Nanobody clone, tested as periplasmic extract; not shown: c-myc and His6 tags) VHH: EVQLVESGGGLAQAGGSLRLSCAASGRSLSNYAMGWFRQAPGKEREIVCAISRSGSITTYADSVKGRFTIAKDNAANTVYLQMNSLKPEDTAAYYCAADPMYYGIPDQNWDYWGQGTQVTVSS | –
0.00168 s⁻¹ | – | – | 6E11 (VHH, anti-HGF Nanobody clone, tested as periplasmic extract; not shown: c-myc and His6 tags) VHH: EVQLVESGGGLAQAGGSLRLSCAASGRSLSNYAMGWFRQAPGKEREIVCAISRSGSITTYADSVKGRFTIAKDNAANTVYLQMNSLKPEDTAAYYCAADPMYYGIPDQNWDYWGQGTQVTVSS | –
9.37e-06 s⁻¹ | – | – | 6B6 (VHH, anti-HGF Nanobody clone, tested as periplasmic extract; not shown: c-myc and His6 tags) VHH: EVQLVESGGGLVQPGGSLRLSCAASGFTFDDYAMSWGRQAPGKGLEWVSAISWNGGSTYYAESMKGRFTVSRDNAKNTLYLQMNSLKSEDTAVYYCAKALDPLGVLAGTSGIYDYWGQGTQVTVSS | –
0.00345 s⁻¹ | – | – | 1F3 (VHH) VHH 1: EVQLVESGGGLVQSGGSLKLSCAASGFTFSNYFMSWVRQTPEKRLEWVAYISSGGGSTYYPDSVKGRFTISRDNAKNTLYLQMSSLKSEDTAMYYCVRQGDGYYGDYAMDYWGQGTSVTVSS VHH 2: DIQMTQSPASLSVSVGETVTITCRASENIYSNLAWYQQKQGKSPQLLVYDATHLPDGVPSRFSGSGSGTQFSLKINSLQSEDFGSYYCQHFWGTPYTFGGGTRLEIKR | –
0.00312 s⁻¹ | 0.0001 s⁻¹ | 1.8 nM | 1E2 (VHH, anti-HGF Nanobody clone; not shown: c-myc and His6 tags) VHH: EVQLVESGGGLVQPGGSLRLSCAASGRTFSSYAMGWFRQAPGKEREFVAGISWSGSSSYYADSVKGRFTISRDNAKNTVYLQMNSLKPEDTAVYYCAADPVGRADLYEYDYWGQGTQVTVSS | Kd [4]: 1.36 nM; Kd [2]: 1.36 nM; koff [2]: 0.0001 s⁻¹; kon [2]: 75200 M⁻¹ s⁻¹
0.00286 s⁻¹ | – | – | 1C7 (VHH, anti-HGF Nanobody clone, tested as periplasmic extract; not shown: c-myc and His6 tags) VHH: EVQLVESGGGLVQAGGSLRLSCAASGRTFSSYAMGWFRQAPGKEREFVAGISWSGGSTYYADSVKGRFTISRDNAKNTVYLRMNSLKPEDTAVYYCAADPVGRADLYEYDYWGQGTQVTVSS | –
0.000774 s⁻¹ | ≤ 1e-05 s⁻¹ | 2.8 nM | 6B2 (VHH, anti-HGF Nanobody clone; not shown: c-myc and His6 tags) VHH: EVQLVESGGGLVQAGGSLRLSCAASGRTFSSYAMGWFRQAPGKEREFVAAINWSGDSTYYADSVKGRFTISRDNAKNTVYLQMNSLKPEDTAVYYCAAGDVGRPDLYEYDYWGQGTQVTVSS | Kd [4]: ≤ 0.08 nM; Kd [2]: 0.08 nM; koff [2]: 2.15e-06 s⁻¹; kon [2]: 27800 M⁻¹ s⁻¹
0.000377 s⁻¹ | – | – | 10G3 (VHH, anti-HGF Nanobody clone, tested as periplasmic extract; not shown: c-myc and His6 tags) VHH: EVQLVESGGGLVQAGGSLRLSCADSGRTFSSYAMGWFRQAPGKEREFVAGVNWSGDSTYYADSVKGRFTISRDNAKNTVYLQMNSLKPEDAAVYYCAADPVGRADLYEYDYWGQGTQVTVSS | –
0.0008 s⁻¹ | – | – | 5G9 (VHH, anti-HGF Nanobody clone, tested as periplasmic extract; not shown: c-myc and His6 tags) VHH: EVQLVESGGGLVQTGGSLRLSCAASGRTFSPYAAGWFRHAPGKEREFVTAITWSGGSTYYADSVKGRFTISRDNAKNTVYLQMNSLKPEDTAVYYCAASYRWGITHEFDYWGQGTQVTVSS | –
0.000324 s⁻¹ | 5e-05 s⁻¹ | 3 nM | 6E10 (VHH, anti-HGF Nanobody clone; not shown: c-myc and His6 tags) VHH: EVQLVESGGGLVQAGGSLRLSCAASGRTDSSYAMGWFRQAPGKEHEFVAAISWSGGSTYYADSVKGRFTISRDNAKNTLYLQMNSLKPEDTAVYYCGASYRWGITHEYEYWGQGTQVTVSS | Kd [4]: 1.14 nM; Kd [2]: 1.14 nM; koff [2]: 5.5e-05 s⁻¹; kon [2]: 49900 M⁻¹ s⁻¹
0.00545 s⁻¹ | – | – | 6F6 (VHH, anti-HGF Nanobody clone; not shown: c-myc and His6 tags) VHH: EVQLVESGGGLVQPGGSLRLSCAASGSILGINAMGWYRQAPGKQRELVAVINSGGSTNYADSVKGRFTISRDNAKNTVYLQMNSLKPEDTAVYYCNADEWGDYPGQVYDYWGQGTQVTVSS | koff [6]: 0.00213 s⁻¹; koff [7]: 0.00577 s⁻¹
0.00314 s⁻¹ | 0.0005 s⁻¹ | 4.5 nM | 1E9 (VHH, anti-HGF Nanobody clone; not shown: c-myc and His6 tags) VHH: EVQLVESGGGLVQPGGSLRLSCAASGFTLDHYTIGWFRQAPGNEREGVSCISSLDGSTYYADSVKGRFTISRDNAKDTVYLQMNSLKPEDTAVYYCAVAGCGAYGLIPYDYWGQGTQVTVSS | Kd [4]: 7.16 nM; Kd [2]: 7.16 nM; koff [2]: 0.00052 s⁻¹; kon [2]: 92000 M⁻¹ s⁻¹
0.00107 s⁻¹ | 0.001 s⁻¹ | 6.6 nM | 9G6 (VHH, anti-HGF Nanobody clone; not shown: c-myc and His6 tags) VHH: EVQLVESGGGLVQAGGSLRLSCAASGRTLSDYTMGWFRQAPGKEREFVARINTGGPITSYSDSVKGRFTISRDNAKNTVYLQMNSLKPEDTAVYNCAARLPTKMSPRDYSSYAYRGQGTQVTVSS | koff [6]: 0.00102 s⁻¹; koff [7]: 0.00237 s⁻¹
0.0139 s⁻¹ | 0.003 s⁻¹ | 26.7 nM | 6H6 (VHH, anti-HGF Nanobody clone; not shown: c-myc and His6 tags) VHH: EVQLMESGGGLVQAGGSLRLSCAASGRTFSSYAMGWFRQAPGKERENVAAISSSGGYTYYPDSVKGRFTISRDTAKNTVYLQMNSLKPDDTAVYYCAGTQPNFGWQLLLLQTEYDYWGQGTQVTVSS | koff [6]: 0.00332 s⁻¹; koff [7]: 0.00313 s⁻¹
